Target: the molecule itself
Assay: SAXS

B1: Human Presequence Protease E107Q (hPreP E107Q) (enzyme, UniProt Q5JRX3 34-1037, looked up)
chain: CERALQYKLGDKIHGFTVNQVTSVPELFLTAVKLTHDDTGARYLHLAREDTNNLFSVQFRTTPMDSTGVPHILQHTVLCGSQKYPCRDPFFKMLNRSLSTFMNAFTASDYTLYPFSTQNPKDFQNLLSVYLDATFFPCLRELDFWQEGWRLEHENPSDPQTPLVFKGVVFNEMKGAFTDNERIFSQHLQNRLLPDHTYSVVSGGDPLCIPELTWEQLKQFHATHYHPSNARFFTYGNFPLEQHLKQIHEEALSKFQKIEPSTVVPAQTPWDKPREFQITCGPDSFATDPSKQTTISVSFLLPDITDTFEAFTLSLLSSLLTSGPNSPFYKALIESGLGTDFSPDVGYNGYTREAYFSVGLQGIAEKDIETVRSLIDRTIDEVVEKGFEDDRIEALLHKIEIQMKHQSTSFGLMLTSYIASCWNHDGDPVELLKLGNQLAKFRQCLQENPKFLQEKVKQYFKNNQHKLTLSMRPDDKYHEKQAQVEATKLKQKVEALSPGDRQQIYEKGLELRSQQSKPQDASCLPALKVSDIEPTIPVTELDVVLTAGDIPVQYCAQPTNGMVYFRAFSSLNTLPEELRPYVPLFCSVLTKLGCGLLDYREQAQQIELKTGGMSASPHVLPDDSHMDTYEQGVLFSSLCLDRNLPDMMQLWSEIFNNPCFEEEEHFKVLVKMTAQELANGIPDSGHLYASIRAGRTLTPAGDLQETFSGMDQVRLMKRIAEMTDIKPILRKLPRIKKHLLNGDNMRCSVNATPQQMPQTEKAVEDFLRSIGRSKKERRPVRPHTVEKPVPSSSGGDAHVPHGSQVIRKLVMEPTFKPWQMKTHFLMPFPVNYVGECIRTVPYTDPDHASLKILARLMTAKFLHTEIREKGGAYGGGAKLSHNGIFTLYSYRDPNTIETLQSFGKAVDWAKSGKFTQQDIDEAKLSVFSTVDAPVAPSDKGMDHFLYGLSDEMKQAHREQLFAVSHDKLLAVSDRYLGTGKSTHGLAILGPENPKIAKDPSWIIQ
  stoichiometry N: 2
